Patent US20250064910A1 (CHILDREN S MEDICAL CENTER, published 2025)

Biological target: T1, IpgC (UniProt P0A2U4 1-155, limits assumed)
T1 construct: Co-expressed with Rhavi-IpaB in E. coli from pETDuet; also called chaperone IpgC
Assay: co-expression in E. coli; chaperone retained with the His-tagged fusion on Ni-NTA until the detergent wash
Protocol: DNA fragments encoding of His-SseB and SseA or His-IpaB and IpgC were synthesized and cloned into a pETDuet vector containing Rhavi by restriction enzyme digestion and ligation. Sequence-confirmed plasmids were transformed E. coli T7 shuffle express cells and transformants containing the relevant cloned proteins were grown to OD600=1 at 25° C., and protein expression was induced with 0.2 mM IPTG at 16° C. overnight. Cells were spun down and pellets were resuspended in lysis buffer (20 mM Tris-HCl, 500 mM NaCl, pH8.0) and then lysed by sonication. Supernatant was loaded over a Ni-NTA column and SseA or IpgC was washed off column with 0.05% LDAO in lysis buffer; proteins Rhavi-SseB and Rhavi-IpaB were eluted in imidazole buffer. Protein-containing elutions were combined, purified over a gel-filtration column for dimer fractions.

T1 sequence (P0A2U4 whole entry): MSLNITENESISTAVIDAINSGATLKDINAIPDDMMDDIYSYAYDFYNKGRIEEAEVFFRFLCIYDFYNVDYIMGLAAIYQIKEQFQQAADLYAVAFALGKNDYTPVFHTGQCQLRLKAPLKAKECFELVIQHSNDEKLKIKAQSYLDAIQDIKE

B1: Rhavi-IpaB (rhizavidin fused to Shigella IpaB) (other)
chain: FDASNFKDFSSIASASSSWQNQSGSTMIIQVDSFGNVSGQYVNRAQGTGCQNSPYPLTGRVNGTFIAFSVGWNNSTENCNSATGWTGYAQVNGNNTEIVTSWNLAYEGGSGPAIEQGQDTFQYVPTTENKSLLKDGGGSSHNVSTTTTGFPLAKILASTELGDNTIQAANDAANKLFSLTIADLTANQNINTTNAHSTSNILIPELKAPKSLNASSQLTLLIGNLIQILGEKSLTALTNKITAWKSQQQARQQKNLEFSDKINTLLSETEGLTRDYEKQINKLKNADSKIKDLENKINQIQTRLSELDPESPEKKKLSREEIQLTIKKDAAVKDRTLIEQKTLSIHSKLTDKSMQLEKEIDSFSAFSNTASAEQLSTQQKSLTGLASVTQLMATFIQLVGKNNEESLKNDLALFQSLQESRKTEMERKSDEYAAEVRKAEELNRVMGCVGKILGALLTIVSVVAAAFSGGASLALAAVGLALMVTDAIVQAATGNSFMEQALNPIMKAVIEPLIKLLSDAFTKMLEGLGVDSKKAKMIGSILGAIAGALVLVAAVVLVATVGKQAAAKLAENIGKIIGKTLTDLIPKFLKNFSSQLDDLITNAVARLNKFLGAAGDEVISKQIISTHLNQAVLLGESVNSATQAGGSVASAVFQNSASTNLADLTLSKYQVEQLSKYISEAIEKFGQLQEVIADLLASMSNSQANRTDVAKAILQQTTA
notes: also called IpaB fused to rhizavidin; Rhavi-IpaB carrier protein
binding result: binds
